Data published in patent publication US20250170238A1 (LANIER BIOTHERAPEUTICS, published 2025).
One block for each binder: values may come before it.

Key:
[1] = biological target: T1, Human IL-25 (made from human (HEK) sources) (human, UniProt Q9H293 33-177); assay: cell-based or functional assay
T1 sequence (looked up): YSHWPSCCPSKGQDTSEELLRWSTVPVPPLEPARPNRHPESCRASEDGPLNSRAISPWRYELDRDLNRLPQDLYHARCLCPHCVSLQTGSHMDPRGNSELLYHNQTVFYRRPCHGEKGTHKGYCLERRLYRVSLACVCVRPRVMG

[2] = biological target: T2, mouse IL-25 (made from mouse (NSO) source) (mouse, UniProt Q8VHH8 17-169); assay: cell-based or functional assay
T2 sequence (looked up): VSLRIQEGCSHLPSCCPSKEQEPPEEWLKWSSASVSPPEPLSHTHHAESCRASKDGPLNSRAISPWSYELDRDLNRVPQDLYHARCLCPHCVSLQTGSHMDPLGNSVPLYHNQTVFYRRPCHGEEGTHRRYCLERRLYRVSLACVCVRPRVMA

[3] = biological target: T1, Human IL-25 (made from human (HEK) …); assay: binding affinity, method not stated; human IL-25 made in HEK
[4] = biological target: T2, mouse IL-25 (made from mouse (NSO) …); assay: binding affinity, method not stated; mouse IL-25 made in NSO
[5] = biological target: T3, Cyno Monkey IL-25 (HEK) (cynomolgus monkey, UniProt G7P9V9 33-176); assay: binding affinity, method not stated; cyno monkey IL-25 made in HEK
T3 construct: also called Cyno Monkey (HEK)
T3 sequence: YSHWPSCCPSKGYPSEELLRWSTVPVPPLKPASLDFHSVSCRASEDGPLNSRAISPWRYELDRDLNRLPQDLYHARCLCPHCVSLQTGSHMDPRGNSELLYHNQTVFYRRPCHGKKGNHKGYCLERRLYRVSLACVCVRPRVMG

Potency IC50 in HT29 cell assay [1]: 120 µg/mL | Potency IC50 in HT29 cell assay [2]: 130 µg/mL | Kd [3]: 0.128 nM | Kd [4]: 0.168 nM | Kd [5]: 0.17 nM
B1: anti-IL-25 antibody LNR125 (antibody, V domains shown)
VH: QVTLKVSGPGILQPSQTLSLTCSFSGFSLNTSGMGVGWIRQPSGKGLEWLAHIWWDDVKRYNPALKSRLTISKDTSGSQVFLKIASVDTADTATYYCARTLPHFFDYWGQGTTLTVSS
VL: DIQMTQSPAIMSASPGEKVTISCRASSSVSYMYWYQQKSGSSPKPWIYRTSNLASGVPARFSGSGSGTSYSLTISSMEAEDAATYYCKQYHSYPPTWTFGGGTKLEIKR

Potency IC50 in HT29 cell assay [1]: 100 µg/mL | Potency IC50 in HT29 cell assay [2]: 780 µg/mL | Kd [3]: 0.051 nM | Kd [4]: 0.096 nM | Kd [5]: 0.235 nM
B2: humanized anti-IL-25 antibody LNR125.38 (antibody, V domains shown)
VH: QVTLKESGPTLVKPTQTLTLTCTFSGFSLSTSGMGVGWIRQPPGKALEWLAHIWWDDVKRYNPSLKSRLTITKDTSGSQVVLTMTNMDPVDTATYYCARTLPHFHDYWGQGTTLTVSS
VL: DIQMTQSPSTLSASVGDRVTITCRASSSVSYMYWYQQKPGKAPKPLIYRTSNLASGVPSRFSGSGSGTEYTLTISSLQPDDFATYYCKQYHSYPPTWTFGGGTKVEIKR
